Results as given in patent US7465582B1, “Nurr-1 induction of a dopaminergic neuronal fate in a neural stem cell or neural progenitor cell in vitro” (Neuro Therapeutics AB, priority 2000, dated 2008).

Experiments:
[1] = tested on: Nurr1 over-expressing C17.2 clones; test: Treatment of Nurr1 clones with trophic factors, mitogens, cytokines and other agents; TH immunoreactivity; type: cell-based, mouse; conditions: Nurr1 clones without co-culture; factors alone or combined
Text: C17.2 cells were cotransfected with a CMX-Nurr1 expression vector (Perlmann, T. et al. Genes Dev. 9, 769-782 (1995)) and PGK-puromycin resistance plasmids (Nurr1 clones) or a PGK-puromycin alone (mock clones). For reporter assays, C17.2 parental cells were transfected with the Nurr1 expression vector, the reporter plasmid (NGFIB-binding response element (NBRE) triplet upstream of TK minimal promoter fused to firefly luciferase) and a pRSV-alkaline phosphatase plasmid at a 2:1:2 ratio.
C17.2 neural stem cells (Snyder, E. Y. et al. Cell 68, 33-51 (1992)) were maintained and passaged as previously described (Snyder, E. Y. et al. Cell 68, 33-51 (1992)). Ventral mesencephala from E16 rat embryos were dissected, mechanically dissociated and plated at a final density of 1×10^5 cells/cm^2 on poly-D-lysine coated culture wells in a defined, serum-free medium (N^2, consisting of a 1:1 mixture of F12 and DMEM containing insulin (10 ng/ml), transferrin (100 μg/ml), putrescine (100 μM), progesterone (20 nM), selenium (30 nM) glucose (6 mg/ml), and bovine serum albumin (1 mg/ml)). After 24 hours in vitro, co-cultures were initiated by directly plating 2.5−5×10^4 C17.2-derived cells into the primary cultures; all ages of cultures given use this point as 0 DIV. […] Purified Type 1 astrocytes were obtained from mixed glial cultures derived from various regions of P1 rats according to a standard protocol (McCarthy, K. D. et al. J. Cell Biol. 85, 890-902 (1980)). After replating into 6- or 12-well plates, astrocytes were grown to confluency in serum-containing media and changed to N2 medium. After 3-5 DIV, co-cultures were initiated in fresh N2 as described above. All factors were added once, at the initiation of co-culture (concentrations are noted in the Results and Discussion), with the exception of 5-bromodeoxyuridine (BrdU), which was added 4-6 hours prior to fixation. […]
Fixed cultures were incubated with one of the following antibodies, diluted appropriately in phosphate-buffered saline (PBS) containing 1% bovine serum albumin and 0.3% Triton-X 100: mouse anti-BrdU, 1:50 (DAKO, Denmark), mouse anti-β-tubulin, Type III (TuJ1), 1:250 (Sigma), mouse anti-TH, 1:1000 (Incstar, USA), rabbit anti-β-galactosidase, 1:250 (Cappel, USA) rabbit anti-GFAP, 1:500 (DAKO, Denmark), rabbit anti-AHD-2, 1:4000. […] Quantitative immunocytochemical data represent means and standard errors from 100-500 cells counted in each of 3-6 separate wells from 2-4 experiments. For quantitation of TH expression in co-cultures of primary and C-17.2-derived cells, TH was visualized with the brightfield AEC substrate, while β-gal was assessed using FITC, thus all data expressed as “% TH+” represents the number of TH+/β-gal+divided by total β-gal positive cells.

[2] = tested on: Nurr1-c42-derived dopaminergic neurons; test: Response of TH positive c42 cells in co-culture to neurotrophic factors; type: cell-based, mouse; conditions: 9 DIV, after SR11237 and bFGF induction; for neuritogenesis and/or hypertrophy: BDNF 30 ng/ml, CNTF 10 ng/ml, GDNF 10 ng/ml
Method: C17.2 neural stem cells (Snyder, E. Y. et al. Cell 68, 33-51 (1992)) were maintained and passaged as previously described (Snyder, E. Y. et al. Cell 68, 33-51 (1992)). Ventral mesencephala from E16 rat embryos were dissected, mechanically dissociated and plated at a final density of 1×10^5 cells/cm^2 on poly-D-lysine coated culture wells in a defined, serum-free medium (N^2, consisting of a 1:1 mixture of F12 and DMEM containing insulin (10 ng/ml), transferrin (100 μg/ml), putrescine (100 μM), progesterone (20 nM), selenium (30 nM) glucose (6 mg/ml), and bovine serum albumin (1 mg/ml)). After 24 hours in vitro, co-cultures were initiated by directly plating 2.5−5×10^4 C17.2-derived cells into the primary cultures; all ages of cultures given use this point as 0 DIV. […] Purified Type 1 astrocytes were obtained from mixed glial cultures derived from various regions of P1 rats according to a standard protocol (McCarthy, K. D. et al. J. Cell Biol. 85, 890-902 (1980)). After replating into 6- or 12-well plates, astrocytes were grown to confluency in serum-containing media and changed to N2 medium. After 3-5 DIV, co-cultures were initiated in fresh N2 as described above. All factors were added once, at the initiation of co-culture (concentrations are noted in the Results and Discussion), with the exception of 5-bromodeoxyuridine (BrdU), which was added 4-6 hours prior to fixation. Cultures were maintained in a humidified 5% CO2, 95% air incubator at 37 C and fixed after given time periods with 4% paraformaldehyde for 45 minutes for immunocytochemical analysis.
Fixed cultures were incubated with one of the following antibodies, diluted appropriately in phosphate-buffered saline (PBS) containing 1% bovine serum albumin and 0.3% Triton-X 100: mouse anti-BrdU, 1:50 (DAKO, Denmark), mouse anti-β-tubulin, Type III (TuJ1), 1:250 (Sigma), mouse anti-TH, 1:1000 (Incstar, USA), rabbit anti-β-galactosidase, 1:250 (Cappel, USA) rabbit anti-GFAP, 1:500 (DAKO, Denmark), rabbit anti-AHD-2, 1:4000. Incubations were either carried out at 4° C. overnight, or at room temperature for 1 hour. Both processes yielded similar results. After washing, cultures were incubated for 1-3 hr with appropriate secondary antibodies (biotinylated horse-anti-mouse IgG or goat-anti-rabbit IgG, Vector, USA), 1:100, in the same dilution buffer. […] Quantitative immunocytochemical data represent means and standard errors from 100-500 cells counted in each of 3-6 separate wells from 2-4 experiments. For quantitation of TH expression in co-cultures of primary and C-17.2-derived cells, TH was visualized with the brightfield AEC substrate, while β-gal was assessed using FITC, thus all data expressed as “% TH+” represents the number of TH+/β-gal+divided by total β-gal positive cells. […]

| Molecule | induction of TH expression [1] | neuritogenesis and/or hypertrophy [2] | number of TH+ cells in the culture ([2]; compared to N2 control, NT-3 30 ng/ml) |
| --- | --- | --- | --- |
| BDNF: Brain Derived Neurotrophic Factor (protein, UniProt P23560 19-247, looked up) Neurotrophic factor BDNF …: APMKEANIRGQGGLAYPGVRTHGTLESVNGPKAGSRGLTSLADTFEHVIEELLDEDQKVRPNEENNKDADLYTSRVMLSSQVPLEPPLLFLLEEYKNYLDAANMSMRVRRHSDPARRGELSVCDSISEWVTAADKKTAVDMSGGTVTVLEKVPVSKGQLKQYFYETKCNPMGYTKEGCRGIDKRHWNSQCRTTQSYVRALTMDSKKRIGWRFIRIDTSCVCTLTIKRGR | None of these factors induced TH expression in any of the clones | induced neuritogenesis and/or hypertrophy |  |
| NT-3: neurotrophin-3 (protein, UniProt P20783 139-257, looked up) Neurotrophin-3: YAEHKSHRGEYSVCDSESLWVTDKSSAIDIRGHQVTVLGEIKTGNSPVKQYFYETRCKEARPVKNGCRGIDDKHWNSQCKTSQTYVRALTSENNKLVGWRWIRIDTSCVCALSRKIGRT | None of these factors induced TH expression in any of the clones |  | dramatically increased the number of TH+ cells |
| CNTF: Ciliary Neurotrophic Factor (protein, UniProt P26441 1-200, looked up) Ciliary neurotrophic factor: MAFTEHSPLTPHRRDLCSRSIWLARKIRSDLTALTESYVKHQGLNKNINLDSADGMPVASTDQWSELTEAERLQENLQAYRTFHVLLARLLEDQQVHFTPTEGDFHQAIHTLLLQVAAFAYQIEELMILLEYKIPRNEADGMPINVGDGGLFEKKLWGLKVLQELSQWTVRSIHDLRFISSHQTGIPARGSHYIANNKKM | None of these factors induced TH expression in any of the clones | induced neuritogenesis and/or hypertrophy |  |
| GDNF: Glial cell line-Derived Neurotrophic Factor (protein, UniProt P39905 78-211, looked up) Glial cell line-derived …: SPDKQMAVLPRRERNRQAAAANPENSRGKGRRGQRGKNRGCVLTAIHLNVTDLGLGYETKEELIFRYCSGSCDAAETTYDKILKNLSRNRRLVSDKVGQACCRPIAFDDDLSFLDDNLVYHILRKHSAKRCGCI | None of these factors induced TH expression in any of the clones | induced neuritogenesis and/or hypertrophy |  |
